According to patent US20200078439A1 (IMMATICS BIOTECHNOLOGIES, published 2020):

Biological target: T1, HLA-A*0211 (purified recombinant HLA-A*0211 heavy chain with beta-2 microglobulin) (human)
T1 construct: MHC class I molecule without peptide; folds with b2m in a peptide-dependent manner, and folded complex is measured by ELISA
Assay: ELISA-based refolding assay: recombinant HLA-A*0211 heavy chain + b2m + graded doses of peptide

binding result	Binder
no binding	LDRERAKN [BIR-12 (C-terminal octamer of BIR-004: LDRERAKN)]
binds	LKLDRERAKN [BIR-13 (C-terminal decamer of BIR-004: LKLDRERAKN)]
binds	KLDRERAKN (also called nonamer BIR-11) [BIR-11 (C-terminal nonamer of BIR-004: KLDRERAKN)]
